Laboratory results as given in IntAct's records for PubMed 18084303.

Biological target: Nlgn1, Q99K10-1
Sequence (Q99K10 whole entry): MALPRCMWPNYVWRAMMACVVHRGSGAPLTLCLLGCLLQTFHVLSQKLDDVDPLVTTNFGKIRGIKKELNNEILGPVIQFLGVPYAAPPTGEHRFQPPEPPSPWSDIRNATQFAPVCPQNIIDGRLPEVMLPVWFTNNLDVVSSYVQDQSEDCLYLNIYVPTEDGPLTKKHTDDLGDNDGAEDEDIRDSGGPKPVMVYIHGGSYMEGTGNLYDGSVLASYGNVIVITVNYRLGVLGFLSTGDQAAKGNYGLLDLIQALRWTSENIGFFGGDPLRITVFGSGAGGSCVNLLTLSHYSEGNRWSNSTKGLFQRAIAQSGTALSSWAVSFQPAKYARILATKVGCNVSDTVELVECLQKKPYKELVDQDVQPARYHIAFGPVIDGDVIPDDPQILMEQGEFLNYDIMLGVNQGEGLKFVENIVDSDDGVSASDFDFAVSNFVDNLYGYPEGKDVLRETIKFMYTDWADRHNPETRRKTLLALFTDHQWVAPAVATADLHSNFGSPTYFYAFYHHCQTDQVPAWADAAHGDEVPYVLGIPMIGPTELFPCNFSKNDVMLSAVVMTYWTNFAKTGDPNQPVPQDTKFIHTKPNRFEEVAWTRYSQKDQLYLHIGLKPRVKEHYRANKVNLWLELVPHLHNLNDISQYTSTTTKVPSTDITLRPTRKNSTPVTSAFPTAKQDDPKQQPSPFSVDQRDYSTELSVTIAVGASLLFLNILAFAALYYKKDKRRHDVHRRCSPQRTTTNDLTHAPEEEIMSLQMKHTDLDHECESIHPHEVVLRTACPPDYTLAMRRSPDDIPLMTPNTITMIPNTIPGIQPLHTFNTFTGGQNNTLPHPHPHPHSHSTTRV

Chain of Neurexin-1-beta (Homo sapiens), P58400-1 S111R (P58400 other isoform, or with tags, fused parts or gaps S111R): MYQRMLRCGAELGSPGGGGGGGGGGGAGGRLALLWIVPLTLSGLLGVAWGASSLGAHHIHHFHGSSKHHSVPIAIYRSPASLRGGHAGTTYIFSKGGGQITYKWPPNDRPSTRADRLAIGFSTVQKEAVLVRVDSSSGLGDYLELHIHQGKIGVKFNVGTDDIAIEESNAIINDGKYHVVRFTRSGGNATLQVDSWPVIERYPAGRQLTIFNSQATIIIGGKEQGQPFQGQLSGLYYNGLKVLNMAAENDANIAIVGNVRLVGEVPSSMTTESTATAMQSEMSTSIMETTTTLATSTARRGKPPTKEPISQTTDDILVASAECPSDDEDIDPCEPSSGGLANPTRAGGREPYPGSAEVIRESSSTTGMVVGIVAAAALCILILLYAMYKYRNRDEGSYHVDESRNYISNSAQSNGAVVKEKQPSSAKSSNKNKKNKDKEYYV
Chain of Neurexin-1-beta (Homo sapiens), P58400-1 L139R (P58400 other isoform, or with tags, fused parts or gaps L139R): as the sequence (P58400 other isoform, or with tags, fused parts or gaps S111R) above
Chain of Neurexin-1-beta (Homo sapiens), P58400-1 L240R (P58400 other isoform, or with tags, fused parts or gaps L240R): as the sequence (P58400 other isoform, or with tags, fused parts or gaps S111R) above
Chain of Neurexin-1-beta (Homo sapiens), P58400-1 D141S (P58400 other isoform, or with tags, fused parts or gaps D141S): as the sequence (P58400 other isoform, or with tags, fused parts or gaps S111R) above

Substance	effect of a mutation on the interaction
Neurexin-1-beta (Homo sapiens), P58400-1 D141S	disrupting interaction
Neurexin-1-beta (Homo sapiens), P58400-1 L139R	disrupting interaction
Neurexin-1-beta (Homo sapiens), P58400-1 L240R	disrupting interaction
Neurexin-1-beta (Homo sapiens), P58400-1 S111R	disrupting interaction
